{"source": "patent US20110110932A1", "about": "“COMBINATION TREATMENT FOR OCULAR DISEASES” (OPHTHOTECH CORP., priority 2009, published 2011)", "origin": "cited, not measured here", "key": {"[1]": {"system": "choroidal neovascularization (CNV)", "settings": "cynomolgus monkeys, laser induced CNV"}, "α5β1 integrin": {"target": "α5β1 integrin (Homo sapiens, UniProt P05556+P08648)", "sequence (P08648 42-894 limits assumed)": "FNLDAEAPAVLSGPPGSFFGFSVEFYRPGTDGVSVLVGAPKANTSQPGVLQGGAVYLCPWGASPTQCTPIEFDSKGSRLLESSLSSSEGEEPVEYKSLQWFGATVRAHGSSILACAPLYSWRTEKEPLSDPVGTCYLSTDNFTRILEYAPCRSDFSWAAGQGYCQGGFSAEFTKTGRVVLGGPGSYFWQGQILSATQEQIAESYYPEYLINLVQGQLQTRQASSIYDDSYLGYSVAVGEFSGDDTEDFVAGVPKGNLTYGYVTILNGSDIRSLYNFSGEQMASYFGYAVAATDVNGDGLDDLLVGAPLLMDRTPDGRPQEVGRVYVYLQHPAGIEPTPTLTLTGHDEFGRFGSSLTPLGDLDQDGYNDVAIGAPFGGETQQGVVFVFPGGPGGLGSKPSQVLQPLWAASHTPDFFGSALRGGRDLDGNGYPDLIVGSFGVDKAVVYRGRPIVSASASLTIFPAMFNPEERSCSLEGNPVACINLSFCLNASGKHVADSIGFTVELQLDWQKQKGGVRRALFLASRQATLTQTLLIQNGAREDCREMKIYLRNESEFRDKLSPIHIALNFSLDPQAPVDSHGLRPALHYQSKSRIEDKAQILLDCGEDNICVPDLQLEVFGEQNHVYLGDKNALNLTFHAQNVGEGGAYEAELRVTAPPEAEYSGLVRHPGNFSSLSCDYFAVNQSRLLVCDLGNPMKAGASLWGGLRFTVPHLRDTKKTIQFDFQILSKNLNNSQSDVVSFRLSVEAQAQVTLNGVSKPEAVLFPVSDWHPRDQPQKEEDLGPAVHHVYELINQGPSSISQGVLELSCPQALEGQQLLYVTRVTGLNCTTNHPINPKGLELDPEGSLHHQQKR", "sequence (P08648 895-1049 limits assumed)": "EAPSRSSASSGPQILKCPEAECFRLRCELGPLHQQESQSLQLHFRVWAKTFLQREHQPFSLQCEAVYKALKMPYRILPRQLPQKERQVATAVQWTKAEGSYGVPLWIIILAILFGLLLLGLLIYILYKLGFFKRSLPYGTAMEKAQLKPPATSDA", "sequence (P05556 21-798)": "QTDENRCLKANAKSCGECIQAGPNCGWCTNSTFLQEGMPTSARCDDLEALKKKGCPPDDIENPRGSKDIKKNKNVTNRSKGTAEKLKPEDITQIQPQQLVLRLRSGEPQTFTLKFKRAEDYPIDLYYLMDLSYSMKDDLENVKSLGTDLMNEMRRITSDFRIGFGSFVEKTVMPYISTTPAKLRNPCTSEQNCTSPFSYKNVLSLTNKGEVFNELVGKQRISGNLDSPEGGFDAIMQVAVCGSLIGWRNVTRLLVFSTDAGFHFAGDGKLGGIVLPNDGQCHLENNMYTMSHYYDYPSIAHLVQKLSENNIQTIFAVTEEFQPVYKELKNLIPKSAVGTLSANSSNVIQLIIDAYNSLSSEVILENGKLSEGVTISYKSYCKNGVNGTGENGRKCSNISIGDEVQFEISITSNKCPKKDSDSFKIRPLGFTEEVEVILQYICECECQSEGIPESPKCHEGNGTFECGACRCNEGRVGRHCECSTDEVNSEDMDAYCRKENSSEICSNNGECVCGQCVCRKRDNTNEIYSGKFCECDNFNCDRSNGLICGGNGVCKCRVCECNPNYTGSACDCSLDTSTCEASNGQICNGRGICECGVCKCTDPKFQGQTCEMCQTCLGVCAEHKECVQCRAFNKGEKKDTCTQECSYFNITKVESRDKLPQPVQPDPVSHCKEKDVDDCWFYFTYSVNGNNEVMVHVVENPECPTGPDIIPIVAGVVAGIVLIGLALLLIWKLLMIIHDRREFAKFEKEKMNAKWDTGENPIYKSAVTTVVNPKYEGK"}, "[2]": {"system": "choroidal neovascularization (CNV)", "settings": "rabbits, CNV induced by VEGF/bFGF pellets"}}, "note": "Like-named read-outs stand apart in the source and are kept apart here.", "data": [{"molecule": "F200: Fab fragment of volociximab; heavy chain SEQ ID NO: 6, light chain same as M200 (antibody, chains of the INN, looked up, V domains shown, Fab) VH: QVQLKESGPGLVAPSQSLSITCTISGFSLTDYGVHWVRQPPGKGLEWLVVIWSDGSSTYNSALKSRMTIRKDNSKSQVFLIMNSLQTDDSAMYYCARHGTYYGMTTTGDALDYWGQGTSVTVSS VL: QIVLTQSPAIMSASLGERVTMTCTASSSVSSNYLHWYQQKPGSAPNLWIYSTSNLASGVPARFSGSGSGTSYSLTISSMEAEDAATYYCHQYLRSPPTFGGGTKLEIK", "values": [{"measurement": "anti-angiogenic activity", "setting": "[1]", "result": "significant anti-angiogenic activity"}, {"measurement": "α5β1 integrin antagonistic activity", "setting": "α5β1 integrin", "result": "shown to have α5β1 integrin antagonistic activity"}, {"measurement": "anti-angiogenic activity", "setting": "[2]", "result": "significant anti-angiogenic activity"}]}]}
